Measurements from the Human Domainome abundance scans (Beltran et al. 2025).
± gives the uncertainty stated by the source.

B1: Homeobox protein cut-like 1, residues 941 to 1008; numbered along this chain, P39880 (parent)
chain: QEVDTIELTRQVKEKLAKNGICQRIFGEKVLGLSQGSVSDMLSRPKPWSKLTQKGREPFIRMQLWLNG

Variants of: B1
Experiment: abundance fitness (aPCA) (normalised: wild type 0, dead -1); higher = more abundant; growth selection in yeast, the domain comes from the species named
Details: Homo sapiens

With QEVDTIELTRQVKEKLAKNGICQRIFGEKVLGLSQGSVSDMLSRPKPWSKLTQKGREPFISMQLWLNG as the variant, how does the abundance fitness read?
The abundance fitness was -0.386 ± 0.065.

Which abundance fitness does the source give for QEVDTIELTRQVKEKLAKNGICQRIFGEKVLGLSQGSVSDMLSRPKPWSKLTQKGREPFIYMQLWLNG here?
Its abundance fitness is -0.365 ± 0.11.

With QEVDTIELTRQVKEKLAKNGICQRIFGEKVLGLSQGSVSDMLSRPKPWSKLTQKGREPFITMQLWLNG as the variant, how does the abundance fitness read?
The abundance fitness was -0.131 ± 0.068.

With QEVDTIELTRQVKEKLAKNGICQRIFGEKVLGLSQGSVSDMLSRPKPWSKLTQKGREPFIMMQLWLNG as the variant, how does the abundance fitness read?
The abundance fitness was -0.308 ± 0.063.

For QEVDTIELTRQVKEKLAKNGICQRIFGEKVLGLSQGSVSDMLSRPKPWSKLTQKGREPFILMQLWLNG, which abundance fitness is on record?
The abundance fitness was -0.174 ± 0.045.

With QEVDTIELTRQVKEKLAKNGICQRIFGEKVLGLSQGSVSDMLSRPKPWSKLTQKGREPFIQMQLWLNG as the variant, how does the abundance fitness read?
Its abundance fitness is -0.131 ± 0.085.

For QEVDTIELTRQVKEKLAKNGICQRIFGEKVLGLSQGSVSDMLSRPKPWSKLTQKGREPFINMQLWLNG, which abundance fitness is on record?
The abundance fitness was -0.041 ± 0.11.

Which abundance fitness does the source give for QEVDTIELTRQVKEKLAKNGICQRIFGEKVLGLSQGSVSDMLSRPKPWSKLTQKGREPFIVMQLWLNG here?
Its abundance fitness is -0.487 ± 0.066.

With QEVDTIELTRQVKEKLAKNGICQRIFGEKVLGLSQGSVSDMLSRPKPWSKLTQKGREPFIWMQLWLNG as the variant, how does the abundance fitness read?
The abundance fitness was -0.619 ± 0.096.

For QEVDTIELTRQVKEKLAKNGICQRIFGEKVLGLSQGSVSDMLSRPKPWSKLTQKGREPFIPMQLWLNG, which abundance fitness is on record?
Its abundance fitness is -0.788 ± 0.096.

Which abundance fitness does the source give for QEVDTIELTRQVKEKLAKNGICQRIFGEKVLGLSQGSVSDMLSRPKPWSKLTQKGREPFIRWQLWLNG here?
Its abundance fitness is -0.335 ± 0.075.

With QEVDTIELTRQVKEKLAKNGICQRIFGEKVLGLSQGSVSDMLSRPKPWSKLTQKGREPFIRKQLWLNG as the variant, how does the abundance fitness read?
The abundance fitness was -0.793 ± 0.14.

With QEVDTIELTRQVKEKLAKNGICQRIFGEKVLGLSQGSVSDMLSRPKPWSKLTQKGREPFIRCQLWLNG as the variant, how does the abundance fitness read?
The abundance fitness was -0.226 ± 0.081.

With QEVDTIELTRQVKEKLAKNGICQRIFGEKVLGLSQGSVSDMLSRPKPWSKLTQKGREPFIRHQLWLNG as the variant, how does the abundance fitness read?
Its abundance fitness is -1.33 ± 0.4.

Which abundance fitness does the source give for QEVDTIELTRQVKEKLAKNGICQRIFGEKVLGLSQGSVSDMLSRPKPWSKLTQKGREPFIRNQLWLNG here?
Its abundance fitness is -1.08 ± 0.22.

For QEVDTIELTRQVKEKLAKNGICQRIFGEKVLGLSQGSVSDMLSRPKPWSKLTQKGREPFIRRQLWLNG, which abundance fitness is on record?
Its abundance fitness is -0.855 ± 0.077.

Which abundance fitness does the source give for QEVDTIELTRQVKEKLAKNGICQRIFGEKVLGLSQGSVSDMLSRPKPWSKLTQKGREPFIRPQLWLNG here?
Its abundance fitness is -0.93 ± 0.11.

For QEVDTIELTRQVKEKLAKNGICQRIFGEKVLGLSQGSVSDMLSRPKPWSKLTQKGREPFIRVQLWLNG, which abundance fitness is on record?
The abundance fitness was -0.388 ± 0.06.

With QEVDTIELTRQVKEKLAKNGICQRIFGEKVLGLSQGSVSDMLSRPKPWSKLTQKGREPFIRIQLWLNG as the variant, how does the abundance fitness read?
The abundance fitness was -0.346 ± 0.12.

With QEVDTIELTRQVKEKLAKNGICQRIFGEKVLGLSQGSVSDMLSRPKPWSKLTQKGREPFIRFQLWLNG as the variant, how does the abundance fitness read?
The abundance fitness was 0 ± 0.086.

Which abundance fitness does the source give for QEVDTIELTRQVKEKLAKNGICQRIFGEKVLGLSQGSVSDMLSRPKPWSKLTQKGREPFIRSQLWLNG here?
Its abundance fitness is -0.619 ± 0.068.

For QEVDTIELTRQVKEKLAKNGICQRIFGEKVLGLSQGSVSDMLSRPKPWSKLTQKGREPFIRYQLWLNG, which abundance fitness is on record?
Its abundance fitness is -0.959 ± 0.13.

Which abundance fitness does the source give for QEVDTIELTRQVKEKLAKNGICQRIFGEKVLGLSQGSVSDMLSRPKPWSKLTQKGREPFIRDQLWLNG here?
Its abundance fitness is -0.86 ± 0.11.

For QEVDTIELTRQVKEKLAKNGICQRIFGEKVLGLSQGSVSDMLSRPKPWSKLTQKGREPFIRAQLWLNG, which abundance fitness is on record?
Its abundance fitness is -0.141 ± 0.065.

With QEVDTIELTRQVKEKLAKNGICQRIFGEKVLGLSQGSVSDMLSRPKPWSKLTQKGREPFIRLQLWLNG as the variant, how does the abundance fitness read?
Its abundance fitness is -0.227 ± 0.058.

With QEVDTIELTRQVKEKLAKNGICQRIFGEKVLGLSQGSVSDMLSRPKPWSKLTQKGREPFIRTQLWLNG as the variant, how does the abundance fitness read?
The abundance fitness was -0.274 ± 0.082.

Which abundance fitness does the source give for QEVDTIELTRQVKEKLAKNGICQRIFGEKVLGLSQGSVSDMLSRPKPWSKLTQKGREPFIRGQLWLNG here?
The abundance fitness was -0.591 ± 0.066.

With QEVDTIELTRQVKEKLAKNGICQRIFGEKVLGLSQGSVSDMLSRPKPWSKLTQKGREPFIRMQLTLNG as the variant, how does the abundance fitness read?
Its abundance fitness is -1.31 ± 0.17.

Which abundance fitness does the source give for QEVDTIELTRQVKEKLAKNGICQRIFGEKVLGLSQGSVSDMLSRPKPWSKLTQKGREPFIRMQLGLNG here?
The abundance fitness was -1.01 ± 0.1.

For QEVDTIELTRQVKEKLAKNGICQRIFGEKVLGLSQGSVSDMLSRPKPWSKLTQKGREPFIRMQLDLNG, which abundance fitness is on record?
Its abundance fitness is -0.994 ± 0.15.

Which abundance fitness does the source give for QEVDTIELTRQVKEKLAKNGICQRIFGEKVLGLSQGSVSDMLSRPKPWSKLTQKGREPFIRMQLRLNG here?
The abundance fitness was -0.76 ± 0.081.

With QEVDTIELTRQVKEKLAKNGICQRIFGEKVLGLSQGSVSDMLSRPKPWSKLTQKGREPFIRMQLCLNG as the variant, how does the abundance fitness read?
Its abundance fitness is -0.718 ± 0.12.

For QEVDTIELTRQVKEKLAKNGICQRIFGEKVLGLSQGSVSDMLSRPKPWSKLTQKGREPFIRMQLPLNG, which abundance fitness is on record?
Its abundance fitness is -1.22 ± 0.15.

For QEVDTIELTRQVKEKLAKNGICQRIFGEKVLGLSQGSVSDMLSRPKPWSKLTQKGREPFIRMQLFLNG, which abundance fitness is on record?
The abundance fitness was -0.326 ± 0.095.

For QEVDTIELTRQVKEKLAKNGICQRIFGEKVLGLSQGSVSDMLSRPKPWSKLTQKGREPFIRMQLKLNG, which abundance fitness is on record?
The abundance fitness was -0.715 ± 0.088.

Which abundance fitness does the source give for QEVDTIELTRQVKEKLAKNGICQRIFGEKVLGLSQGSVSDMLSRPKPWSKLTQKGREPFIRMQLALNG here?
The abundance fitness was -0.666 ± 0.064.

With QEVDTIELTRQVKEKLAKNGICQRIFGEKVLGLSQGSVSDMLSRPKPWSKLTQKGREPFIRMQLNLNG as the variant, how does the abundance fitness read?
The abundance fitness was -1.45 ± 0.3.

With QEVDTIELTRQVKEKLAKNGICQRIFGEKVLGLSQGSVSDMLSRPKPWSKLTQKGREPFIRMQLYLNG as the variant, how does the abundance fitness read?
Its abundance fitness is -0.309 ± 0.11.

For QEVDTIELTRQVKEKLAKNGICQRIFGEKVLGLSQGSVSDMLSRPKPWSKLTQKGREPFIRMQLHLNG, which abundance fitness is on record?
The abundance fitness was -0.864 ± 0.28.
